Measured values published in patent US8735129B2, “Ginsenoside glycosidase derived from the genus Terrabacter, and use thereof” (Korea Research Institute of Bioscience and Biotechnology, priority 2009, dated 2014).

Columns and labels:
[1] = Kinetic studies (Km, Vmax) with pNPGlc; assay type: biochemical; details: hydrolysis of pNPGlc, 37° C., Cleland program
Description: Kinetic studies were performed with freshly purified enzyme using pNPGlc at the concentrations from 0.1 mM to 0.6 mM. Its absorbance at 405 nm was monitored at 37° C. for 20 minutes. The resulting data were used to determine Km and Vmax using the Enzyme Kinetics Program reported by Cleland.
In order to examine the substrate specificity of Bgl-gyp17, it was incubated in 50 mM sodium phosphate buffer containing 2.0 mM βα and β-type p-NP (p-nitrophenyl) and oNP (O-nitrophenyl)-glycosidase at pH 7.0 and 37° C. […] The Km and Vmax for the hydrolysis of pNPGlc by ginsenoside glycosidase were determined using 0-2 mM substrate and the enzyme kinetics program reported by Cleland. The values measured by the program were 4.24 mM and 0.10 mmol*min^−1*mg of protein^−1 for pNpGlc.

[2] = Specific activity of the enzyme with pNPGlc; assay type: biochemical
Description: Specific activity was measured using 90 μl of 50 mM sodium phosphate buffer containing 2.0 mM pNPGlc (p-nitrophenyl-β-D-glucopyranoside; Sigma) at pH 7.0, and 10 μl of the diluted purified enzyme was treated at 37° C. for 20 minutes before initiation of the reaction, followed by incubation. 0.1 ml of 1 M Na2CO3 was treated for 5 minutes to terminate the reaction, and the secretion of p-nitrophenol was immediately measured at 405 nm. One unit of activity was defined as the amount of enzyme that released 1 μmol of p-nitrophenol per minute. Specific activity is expressed in units per milligram protein. Protein concentration was measured using a Bio-Rad protein staining reagent according to the protocol. All analyses were performed at least three times.

[3] = assay type: biochemical; details: after incubation at 45° C. for 30 minutes
Description: The thermo-dependence of the activity was assayed in 50 mM potassium phosphate buffer at various temperatures ranging from 4 to 90° C. Thermostability was tested by incubating aliquots of the enzyme in 50 mM potassium phosphate buffer for 30 minutes at different temperatures. After cooling the sample on ice for 10 minutes, residual activity was determined by a standard analysis;
The pH effect on the enzymatic activity was measured using 2.0 mM pNPGlc in the following buffer (50 mM):
Buffer: pH range of 2 to 10: KCl—HCl (pH 2), glycine-HCl (pH 3), sodium acetic acid (pH 4 and 5), sodium phosphate (pH 6 and 7), Tris-HCl (pH 8 and 9) and glycine-sodium hydroxide (pH 10).
The enzyme was incubated in each of the above mentioned buffers at 4° C. for 24 hours, and then pHPGlc was analyzed in 50 mM potassium buffer to measure the enzymatic stability according to pH change. The activity was measured by the above mentioned method.
The results were represented as an activity probability obtained at the optimum pH.
The temperature-dependent activity in the 50 mM potassium phosphate buffer was analyzed within the temperature range of 4-90° C. using 2.0 mM pNPGlc at the optimum pH for 5 minutes. […] The sample was cooled in ice for 10 minutes, and the residual activity was measured by pNPGlc analysis.

B1: Bgl-gyp17: recombinant ginsenoside glycosidase from Terrabacter Gsoil 3082, SEQ ID NO. 1, 589 residues (protein, listed as Terrebacter sp.)
chain: MDPYEDPRLPVEVRVEDLLGRLSLEEKVGLMFQTVIEAGSDGTVLEHPGSISKSPTSTVVLDKHLTHFNVHALDDPRMAARWSNALQALAERTPHGIPVTVSTDPRHAFIENVGVSFSAGAFSQWPEPLGLAALRDADAVRRFADIARQEYVAVGIRAALHPTLDLATEPRWARQAGTFGQDPDLVTELGVAYLKGFQGDSLGSGSVACTSKHFPGGGPQKDGEDAHFPYGREQVYPGGRFADHLKPFPPIIEAGTAGIMPYYGMPVDLVVDGVEIEPIGFGYNKQVVTGLLREKLGYDGVVVTDWELVNDNHVGDQVLPARAWGVEHLDPHGRMELILEAGADQFGGEECVEILLDLVAQGRVTEARVDESARRILAVKFRLGLFENPYVDEDEAAATVGRDDFREEGYAAQARSVTVLHHEGGRLPLEHGLRIYAEQVSPEAVARHGKLVDRPEDADVAVVRLTAPFDPRSDLFLESWFHQGSLDFPPGLVARLERIAAVCPLVVDVVLDRPAVLTPLLRFASAVVGSFGSCDDALLDALTGTIAPVGRLPFDLPRSMDQVRAHGEDVPGYDDPLFPFGHGLRLDTE
modifications: PEPTIDE (1)..(589) amino acid sequence of Bgl-gyp17
notes: 1, 589 residues
[1]
  Km: 4.24 mM
  Vmax: 0.10 mmol*min^−1*mg of protein^−1
[2]; control without metal ions or reagents, Table 5
  specific activity at 100%: ^aThe specific activity at 100% was 44.3 U/mg.
[2]; purification step: Crude extract
  Specific activity (U/mg): 23.4 U/mg
[2]; purification step: DEAE-cellulose purification
  Specific activity (U/mg): 65.8 U/mg
[2]; purification step: Ni purification
  Specific activity (U/mg): 65.0 U/mg
[3]
  loss of activity: approximately 32%
